# Experimental data reported in patent publication US20140088023A1 (UNIVERSITY OF TOLEDO, published 2014).
# Ends that are not written are not given here.
# T1: soluble guanylyl cyclase alpha 1 (sGCα1) (UniProt Q02108 1-690)
# T1 construct: The assay field of each row says which; No construct limits or tags are stated; also called endogenous sGCα1; E. coli-expressed sGCα1
# T1 sequence (looked up): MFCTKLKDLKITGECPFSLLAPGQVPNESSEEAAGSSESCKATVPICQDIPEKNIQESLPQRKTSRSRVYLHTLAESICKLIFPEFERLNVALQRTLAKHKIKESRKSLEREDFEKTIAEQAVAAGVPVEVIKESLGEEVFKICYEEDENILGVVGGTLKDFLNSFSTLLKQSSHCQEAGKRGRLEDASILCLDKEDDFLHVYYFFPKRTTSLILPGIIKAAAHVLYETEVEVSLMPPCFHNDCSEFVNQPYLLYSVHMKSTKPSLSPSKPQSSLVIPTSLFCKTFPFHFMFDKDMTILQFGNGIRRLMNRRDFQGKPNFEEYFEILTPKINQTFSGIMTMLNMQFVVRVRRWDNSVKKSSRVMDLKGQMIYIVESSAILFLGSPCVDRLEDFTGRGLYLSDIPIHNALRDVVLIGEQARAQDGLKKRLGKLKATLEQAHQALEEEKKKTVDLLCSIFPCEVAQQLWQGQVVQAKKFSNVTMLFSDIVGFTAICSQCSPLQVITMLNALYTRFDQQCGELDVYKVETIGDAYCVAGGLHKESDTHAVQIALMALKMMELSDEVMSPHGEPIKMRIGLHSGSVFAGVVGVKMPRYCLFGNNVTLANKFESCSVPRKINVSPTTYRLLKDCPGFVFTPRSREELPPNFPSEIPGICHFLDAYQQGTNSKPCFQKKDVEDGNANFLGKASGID
# Molecular target: T1, soluble guanylyl cyclase alpha 1 (sGCα1)
# Assay: competitive binding assay
row,Binder,binding result
1,KAFPRRRRRRRR [Peptide KP4-8R],no binding

# Molecular target: T1, soluble guanylyl cyclase alpha 1 (sGCα1)
# Assay: cell-based or functional assay
Binder,"IC50 (µM), cytotoxicity, Day 3, LNCaP cell culture","IC50 (µM), cytotoxicity, Day 6, LNCaP cell culture"
TFCKAFRRRRRRRR-NH2 [Peptide TF6-8R],18 µM,28 µM
FCKAFPRRRRRRRR-NH2 [Peptide FP6-8R],22 µM,35 µM
FCKAFRRRRRRRR-NH2 [Peptide FF5-8R],22 µM,40 µM
FMKAFRRRRRRRR-NH2 [Peptide FF5-C2M-8R],90 µM,65 µM
FAKAFRRRRRRRR-NH2 [Peptide FF5-C2A-8R],~210 µM,145 µM
ACKAFRRRRRRRR-NH2 [Peptide FF5-F1A-8R],200 µM,160 µM
FCKAARRRRRRRR-NH2 [Peptide FF5-F5A-8R],160 µM,120 µM
FCAAFRRRRRRRR-NH2 [Peptide FF5-K3A-8R],60 µM,38 µM
FCKARRRRRRRR [Peptide FA4-8R],43 µM,90 µM
CKAFRRRRRRRR-NH2 [Peptide CF4-8R],62 µM,120 µM
TFCRRRRRRRR [Peptide TC3-8R],72 µM,140 µM
Ac-TFCKAFPFHIIRRRRRRRR-OH [Peptide A-8R],8 µM,16 µM
TFCKAFPRRRRRRRR-NH2 [Peptide TP7-8R],16 µM,23 µM
